Source: US11597752B2, “Peptides and combination of peptides and scaffolds thereof for use in immunotherapy against colorectal carcinoma (CRC) and other cancers” (priority 2015, dated 2023)

Molecular target: HLA-A*02:01 (Homo sapiens, UniProt P04439, D140Y/D185E/D98H/E176V/E277Q/G131W/G231S/I119V/I121R/I166T/I218V/L300P/L318F/N151K/N90K/P208A/P217A/Q86G/Q94H/R138H/R169H/T345S)
Test: MHC binding assay (UV-ligand exchange, beta2m ELISA, peptide exchange yield)
Conditions: binding to HLA-A*02:01, β2m ELISA
Text: Candidate peptides for T cell based therapies according to the present invention were further tested for their MHC binding capacity (affinity). The individual peptide-MHC complexes were produced by UV-ligand exchange, where a UV-sensitive peptide is cleaved upon UV-irradiation, and exchanged with the peptide of interest as analyzed. Only peptide candidates that can effectively bind and stabilize the peptide-receptive MHC molecules prevent dissociation of the MHC complexes. To determine the yield of the exchange reaction, an ELISA was performed based on the detection of the light chain (β2m) of stabilized MHC complexes. The assay was performed as generally described in Rodenko et al. (Rodenko et al., 2006).
96 well MAXISorp plates (NUNC) were coated over night with 2 ug/ml streptavidin in PBS at room temperature, washed 4× and blocked for 1 h at 37° C. in 2% BSA containing blocking buffer. Refolded HLA-A*02:01/MLA-001 monomers served as standards, covering the range of 15-500 ng/ml. Peptide-MHC monomers of the UV-exchange reaction were diluted 100 fold in blocking buffer. Samples were incubated for 1 h at 37° C., washed four times, incubated with 2 ug/ml HRP conjugated anti-β2m for 1 h at 37° C., washed again and detected with TMB solution that is stopped with […]. Absorption was measured at 450 nm. Candidate peptides that show a high exchange yield (preferably higher than 50%, most preferred higher than 75%) are generally preferred for a generation and production of antibodies or fragments thereof, and/or T cell receptors or fragments thereof, as they show sufficient avidity to the MHC molecules and prevent dissociation of the MHC complexes.

Substance | Peptide exchange (MHC class I binding score, peptide exchange yield)
92 (WIDDTSAFV; listed as Homo sapiens) [compound 92] | “+++” (≥50 = +++)
120 (VLYEGVDEV; listed as Homo sapiens) [compound 120] | “++” (≥20% = ++)
107 (ALLGGGPYML; listed as Homo sapiens) [compound 107] | “+++” (≥50 = +++)
85 (ILHDINSDGVL; listed as Homo sapiens) [compound 85] | “++” (≥20% = ++)
149 (YQFDKVGILTL; listed as Homo sapiens) [compound 149] | “+++” (≥50 = +++)
174 (ILLDDNMQIRL; listed as Homo sapiens) [compound 174] | “++++” (≥75% = ++++)
84 (SMVEDITGLRL; listed as Homo sapiens) [compound 84] | “+++” (≥50 = +++)
102 (KILVSLIEV; listed as Homo sapiens) [compound 102] | “+++” (≥50 = +++)
140 (LLNEILEQV; listed as Homo sapiens) [compound 140] | “+++” (≥50 = +++)
61 (KLLKLFQGV; listed as Homo sapiens) [compound 61] | “+++” (≥50 = +++)
44 (SLESKLTSV; listed as Homo sapiens) [compound 44] | “+++” (≥50 = +++)
128 (MLDDRAYLV; listed as Homo sapiens) [compound 128] | “++” (≥20% = ++)
136 (KLFDIFSQQV; listed as Homo sapiens) [compound 136] | “+++” (≥50 = +++)
68 (SILQFVHMV; listed as Homo sapiens) [compound 68] | “+++” (≥50 = +++)
3 (RLIPDTLYSV; listed as Homo sapiens) [compound 3] | “++++” (≥75% = ++++)
74 (YLMGFLHAV; listed as Homo sapiens) [compound 74] | “+++” (≥50 = +++)
51 (QVWEIQHTV; listed as Homo sapiens) [compound 51] | “++” (≥20% = ++)
29 (QMLDVAIRV; listed as Homo sapiens) [compound 29] | “+++” (≥50 = +++)
77 (SLLKRDFGA; listed as Homo sapiens) [compound 77] | “++” (≥20% = ++)
27 (LLADEDSSYL; listed as Homo sapiens) [compound 27] | “++” (≥20% = ++)
20 (YLKDGDVML; listed as Homo sapiens) [compound 20] | “+++” (≥50 = +++)
191 (QLFSEIHNL; listed as Homo sapiens) [compound 191] | “++++” (≥75% = ++++)
131 (KLLDVVHPA; listed as Homo sapiens) [compound 131] | “++” (≥20% = ++)
186 (KMSEKILLL; listed as Homo sapiens) [compound 186] | “+++” (≥50 = +++)
108 (SLAELVPGVGGI; listed as Homo sapiens) [compound 108] | “+++” (≥50 = +++)
172 (LLLDTVTMQV; listed as Homo sapiens) [compound 172] | “+++” (≥50 = +++)

Second part, the substance after the results:

Peptide exchange (MHC class I binding score, peptide exchange yield) | Substance
“+++” (≥50 = +++) | 33 (ALWEKNTHL; listed as Homo sapiens) [compound 33]
“+++” (≥50 = +++) | 31 (LLYGKYVSV; listed as Homo sapiens) [compound 31]
“+++” (≥50 = +++) | 23 (FLDANGHFV; listed as Homo sapiens) [compound 23]
“+++” (≥50 = +++) | 57 (NLLEKENYL; listed as Homo sapiens) [compound 57]
“+++” (≥50 = +++) | 181 (NLFDLGGQYLRV; listed as Homo sapiens) [compound 181]
“++” (≥20% = ++) | 103 (FLFGYPKRL; listed as Homo sapiens) [compound 103]
“++++” (≥75% = ++++) | 5 (WLFDDGGLTL; listed as Homo sapiens) [compound 5]
“+++” (≥50 = +++) | 183 (TLQEVVTGV; listed as Homo sapiens) [compound 183]
“++” (≥20% = ++) | 117 (TLQPVDNSTISL; listed as Homo sapiens) [compound 117]
“+++” (≥50 = +++) | 70 (MISELEVRL; listed as Homo sapiens) [compound 70]
“++++” (≥75% = ++++) | 95 (AILDAHIEV; listed as Homo sapiens) [compound 95]
“+++” (≥50 = +++) | 45 (ALAELLHGA; listed as Homo sapiens) [compound 45]
“++” (≥20% = ++) | 135 (KLQEEIPVL; listed as Homo sapiens) [compound 135]
“+++” (≥50 = +++) | 6 (FLAELPGSLSL; listed as Homo sapiens) [compound 6]
“+++” (≥50 = +++) | 73 (YLFDIAVSM; listed as Homo sapiens) [compound 73]
“+++” (≥50 = +++) | 144 (LLNDRIWLA; listed as Homo sapiens) [compound 144]
“+++” (≥50 = +++) | 162 (KLMDYIDEL; listed as Homo sapiens) [compound 162]
“++” (≥20% = ++) | 32 (KLNTETFGV; listed as Homo sapiens) [compound 32]
“++++” (≥75% = ++++) | 88 (KLDIKVETV; listed as Homo sapiens) [compound 88]
“+++” (≥50 = +++) | 90 (GLLKPGLNVVL; listed as Homo sapiens) [compound 90]
“+++” (≥50 = +++) | 179 (RLLSPLSSA; listed as Homo sapiens) [compound 179]
“+++” (≥50 = +++) | 16 (VLVDQSWVL; listed as Homo sapiens) [compound 16]
“+++” (≥50 = +++) | 187 (GLHNVVYGI; listed as Homo sapiens) [compound 187]
“++” (≥20% = ++) | 80 (QVDEVVDIMRV; listed as Homo sapiens) [compound 80]
“++++” (≥75% = ++++) | 147 (TLTELRAFL; listed as Homo sapiens) [compound 147]
